T1: streptokinase, P00779
T1 chain: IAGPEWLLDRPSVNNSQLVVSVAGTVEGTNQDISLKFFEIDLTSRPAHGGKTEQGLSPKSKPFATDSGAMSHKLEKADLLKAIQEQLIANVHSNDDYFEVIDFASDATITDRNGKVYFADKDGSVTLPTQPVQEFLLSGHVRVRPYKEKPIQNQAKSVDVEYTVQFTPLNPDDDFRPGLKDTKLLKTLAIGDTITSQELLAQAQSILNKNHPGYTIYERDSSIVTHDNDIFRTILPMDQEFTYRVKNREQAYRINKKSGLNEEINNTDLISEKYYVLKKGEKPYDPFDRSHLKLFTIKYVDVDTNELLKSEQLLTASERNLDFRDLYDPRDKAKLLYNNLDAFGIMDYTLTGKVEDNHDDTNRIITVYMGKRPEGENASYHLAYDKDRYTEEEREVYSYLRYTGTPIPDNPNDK

B1: loop 7 chimeric microplasminogen (protein)
chain: APSFDCGKPQVEPKKCPGRVVGGCVAHPHSWPWQVSLRTRFGMHFCGGTLISPEWVLTAAHCLEKSPRPSSYKVILGAHQEVNLEPHVQEIEVSRLFLHPDSQPDTIDHDIALLKLSSPAVITDKVIPACLPSPNYVVADRTECFITGWGETQGTFGAGLLKEAQLPVIENKVCNRYEFLNGRVQSTELCAGHLAGGTDSCQGDSGGPLVCFEKDKYILQGVTSWGLGCARPNKPGVYVRVSRFVTWIEGVMRNN
B2: loop 3 chimeric microplasminogen (protein)
chain: APSFDCGKPQVEPKKCPGRVVGGCVAHPHSWPWQVSLRLNGAHFCGGTLISPEWVLTAAHCLEKSPRPSSYKVILGAHQEVNLEPHVQEIEVSRLFLEPTRKDIALLKLSSPAVITDKVIPACLPSPNYVVADRTECFITGWGETQGTFGAGLLKEAQLPVIENKVCNRYEFLNGRVQSTELCAGHLAGGTDSCQGDSGGPLVCFEKDKYILQGVTSWGLGCARPNKPGVYVRVSRFVTWIEGVMRNN
B3: loop 5 chimeric microplasminogen (protein)
chain: APSFDCGKPQVEPKKCPGRVVGGCVAHPHSWPWQVSLRTRFGMHFCGGTLISPEWVLTAAHCLEDAADGKVKVILGAHQEVNLEPHVQEIEVSRLFLEPTRKDIALLKLSSPAVITDKVIPACLPSPNYVVADRTECFITGWGETQGTFGAGLLKEAQLPVIENKVCNRYEFLNGRVQSTELCAGHLAGGTDSCQGDSGGPLVCFEKDKYILQGVTSWGLGCARPNKPGVYVRVSRFVTWIEGVMRNN

Experimental findings from patent publication US20040235115A1 are described below.

In this series the target is T1, streptokinase, P00779.
Regarding B1, the “activation of microplasminogen by streptokinase (S2251 cleavage, A405)” value (from here on “activation of microplasminogen”) is reported as “all three loop mutants were not efficiently activated by the bacterial plasminogen activator streptokinase”. Consider B2, for which the “activation of microplasminogen” value is “all three loop mutants were not efficiently activated by the bacterial plasminogen activator streptokinase”. For B3, the “activation of microplasminogen” value is given as “all three loop mutants were not efficiently activated by the bacterial plasminogen activator streptokinase”.
